Legend:
[1] = target: AccS′ (soluble C-terminal autokinase module of the AccS sensor kinase), His6-tagged (Azoarcus sp. CIB); test: AUC; sedimentation velocity, 20°C, 48,000 rpm, AccS′ 1 mg/ml, in the absence of DTT or with 0.1 mM DTT; dimer to monomers
[2] = target: AccS′ (soluble C-terminal autokinase module of the AccS sensor kinase), His6-tagged (Azoarcus sp. CIB); test: AUC; sedimentation velocity, 20°C, 48,000 rpm, AccS′ 1 mg/ml, with 0.1 mM DTT and 250 µM ubiquinone Q0; dimer to monomers

percent of the protein as dimer (in the absence of DTT) [1]: 62%
percent of the protein as dimer (with DTT) [1]: 88%
stoichiometry N [1]: 2
percent of the protein as dimer (with DTT and Q0) [2]: 37%
stoichiometry N [2]: 2
Substance: AccS′ (soluble C-terminal autokinase module of the AccS sensor kinase), His6-tagged (domain or fragment)

From article PMC6456745
